PMC4848949, “Bacterial Expression and Kinetic Analysis of Carboxylesterase 001D from Helicoverpa armigera” (International Journal of Molecular Sciences, 2016)

B1: Trx/6×His/S-tag/001D (pET32a-001D) (Helicoverpa armigera) (protein)
chain: DDEWREVRTAQGPVRGRKHPTADMYAFYNIPYATAPTGEDKFKAPLPGPVWLEPFDAVDERVVCPQAKLPMDIMKNVVEKENCLIANVFVPNTEEKNLSVVVYVHGGAFIIGSGNMIQATHLMKTNDFIMVSFNYRLGIHGFLCLGTEDAPGNAGMKDQVALLRWVQKNIASFGGNPDDVTIVGSSAGSASVDLLMLSKSAEGLFHRVIPESGGNLAAFTVQRDPVEIAKTHAKKLNFNNVDDIYALEEFYKTVPMELLTSDHFFDRTDATFVFGPCVERDTGDGAFLTESPLSILKSGNYRKLPLLYGFAEMEGLMRINVFELWKHKMNEKFSDFLPADLKFDSEEEREEVANKIKRFYFGDKPVGDENVLKYVDYFSDVYFAYSMLWAVKLHAEAGNNQVYLYEYSFVDEDTPLVPHTNVRGADHCTQTMAVYDMKNITHEDESLATPELQKMKKVVREIWHNFIKTGVPVPEGSWLPAWPAAGADRAPHMSLGERLELRGALLPERTRFWDDIYQRYYRDAVPPPTPPPRPRSEL
notes: mature enzyme, signal peptide (residues 1-16) removed; N-terminal Trx/6×His/S-tag kept; E. coli BL21(DE3), Ni-NTA; about 79 kDa; full precursor 554 residues
B2: 6×His/S-tag/001D (pET30a-001D) (Helicoverpa armigera) (protein)
chain: B1 chain
notes: mature enzyme, signal peptide (residues 1-16) removed; N-terminal 6×His/S-tag kept; E. coli BL21(DE3), Ni-NTA; about 67 kDa
B3: 6×His/001D (pE1-001D) (Helicoverpa armigera) (protein)
chain: B1 chain
notes: mature enzyme, signal peptide (residues 1-16) removed; N-terminal 6×His tag kept; E. coli BL21(DE3), Ni-NTA; about 63 kDa

Each protein was assayed on CC(=O)Oc1cccc2ccccc12 (assay: purified protein). Settings: 0.1 M sodium phosphate pH 7.0, 30 °C.
Type: biochemical, Helicoverpa armigera
B1 was tested, and the Km was 7.61(0.63) µM and the kcat was 2.29(0.08) s^-1.
B2 was tested, and the Km was 12.51(2.14) µM and the kcat was 0.60(0.06) s^-1.
B3 was tested, and the Km was 19.72(6.69) µM and the kcat was 0.35(0.05) s^-1.
